Blank lines part the entries; values can stand above or below the molecule they belong to.
Assays:
Assay type in all cases: biochemical
[1] = ω-transaminase enzyme activity assay, reverse direction (6-aminohexanoate to adipate semialdehyde); conditions: cell free extract, 10 mM 6-aminohexanoate, 10 mM pyruvate, pH 7.5, 25° C., 24 h, RP-HPLC, against the empty vector control
Experimental: (§1) A nucleotide sequence encoding a His-tag was added to the nucleic acid sequences from Chromobacterium violaceum, Pseudomonas aeruginosa, Pseudomonas syringae, Rhodobacter sphaeroides, and Vibrio fluvialis encoding the ω-transaminases of SEQ ID NOs: 7, 8, 9, 10 and 12, respectively (see FIG. 6) such that N-terminal HIS tagged ω-transaminases could be produced. Each of the resulting modified genes was cloned into a pET21a expression vector under control of the T7 promoter and each expression vector was transformed into a BL21[DE3] E. coli host. The resulting recombinant E. coli strains were cultivated at 37° C. in a 250 mL shake flask culture containing 50 mL LB media and antibiotic selection pressure, with shaking at 230 rpm. Each culture was induced overnight at 16° C. using 1 mM IPTG.
(§2) The pellet from each induced shake flask culture was harvested via centrifugation. Each pellet was resuspended and lysed via sonication. The cell debris was separated from the supernatant via centrifugation and the cell free extract was used immediately in enzyme activity assays.
Enzyme activity assays in the reverse direction (i.e., 6-aminohexanoate to adipate semialdehyde) were performed in a buffer composed of a final concentration of 50 mM HEPES buffer (pH=7.5), 10 mM 6-aminohexanoate, 10 mM pyruvate and 100 μM pyridoxyl 5′ phosphate. Each enzyme activity assay reaction was initiated by adding cell free extract of the ω-transaminase gene product or the empty vector control to the assay buffer containing the 6-aminohexanoate and incubated at 25° C. for 24 h, with shaking at 250 rpm. The formation of L-alanine from pyruvate was quantified via RP-HPLC.

[2] = ω-transaminase enzyme activity assay, forward direction (adipate semialdehyde to 6-aminohexanoate); conditions: cell free extract, 10 mM adipate semialdehyde, 10 mM L-alanine, pH 7.5, 25° C., 4 h, RP-HPLC, against the empty vector control
Experimental: as §1, §2
Enzyme activity in the forward direction (i.e., adipate semialdehyde to 6-aminohexanoate) was confirmed for the transaminases of SEQ ID NO 7, SEQ ID NO 8, SEQ ID NO 9, SEQ ID NO 10 and SEQ ID NO 12. Enzyme activity assays were performed in a buffer composed of a final concentration of 50 mM HEPES buffer (pH=7.5), 10 mM adipate semialdehyde, 10 mM L-alanine and 100 μM pyridoxyl 5′ phosphate. Each enzyme activity assay reaction was initiated by adding a cell free extract of the ω-transaminase gene product or the empty vector control to the assay buffer containing the adipate semialdehyde and incubated at 25° C. for 4 h, with shaking at 250 rpm. The formation of pyruvate was quantified via RP-HPLC.

[3] = carboxylate reductase enzyme activity assay (adipate semialdehyde to hexanedial); conditions: purified enzyme enhanced by the gene product of sfp, 2 mM adipate semialdehyde, pH 7.5, room temperature, 20 min, against the empty vector control
Experimental: The N-terminal His-tagged carboxylate reductase of SEQ ID NO 6 (see Example 2 and FIG. 6) was assayed using adipate semialdehyde as substrate. The enzyme activity assay was performed in triplicate in a buffer composed of a final concentration of 50 mM HEPES buffer (pH=7.5), 2 mM adipate semialdehyde, 10 mM MgCl2, 1 mM ATP and 1 mM NADPH. The enzyme activity assay reaction was initiated by adding purified carboxylate reductase and phosphopantetheine transferase or the empty vector control to the assay buffer containing the adipate semialdehyde and then incubated at room temperature for 20 min. The consumption of NADPH was monitored by absorbance at 340 nm.

ω-transaminase activity for converting 6-aminohexanoate to adipate semialdehyde (formation of L-alanine from pyruvate) [1]: accepted 6-aminohexanoate as substrate
Molecule: SEQ ID NO 10: Rhodobacter sphaeroides ω-transaminase, Genbank Accession No. ABA81135.1, N-terminal HIS tagged
ω-transaminase activity for converting adipate semialdehyde to 6-aminohexanoate (formation of pyruvate from L-alanine) [2]: accepted adipate semialdehyde as substrate

ω-transaminase activity for converting 6-aminohexanoate to adipate semialdehyde (formation of L-alanine from pyruvate) [1]: accepted 6-aminohexanoate as substrate
B1: SEQ ID NO 12: Vibrio fluvialis ω-transaminase, Genbank Accession No. AEA39183.1, N-terminal HIS tagged (protein, listed as Vibrio fluvialis)
chain: MNKPQSWEARAETYSLYGFTDMPSLHQRGTVVVTHGEGPYIVDVNGRRYLDANSGLWNMVAGFDHKGLIDAAKAQYERFPGYHAFFGRMSDQTVMLSEKLVEVSPFDSGRVFYTNSGSEANDTMVKMLWFLHAAEGKPQKRKILTRWNAYHGVTAVSASMTGKPYNSVFGLPLPGFVHLTCPHYWRYGEEGETEEQFVARLARELEETIQREGADTIAGFFAEPVMGAGGVIPPAKGYFQAILPILRKYDIPVISDEVICGFGRTGNTWGCVTYDFTPDAIISSKNLTAGFFPMGAVILGPELSKRLETAIEAIEEFPHGFTASGHPVGCAIALKAIDVVMNEGLAENVRRLAPRFEERLKHIAERPNIGEYRGIGFMWALEAVKDKASKTPFDGNLSVSERIANTCTDLGLICRPLGQSVVLCPPFILTEAQMDEMFDKLEKALDKVFAEVA
modifications: N-terminal His tag
ω-transaminase activity for converting adipate semialdehyde to 6-aminohexanoate (formation of pyruvate from L-alanine) [2]: accepted adipate semialdehyde as substrate

ω-transaminase activity for converting 6-aminohexanoate to adipate semialdehyde (formation of L-alanine from pyruvate) [1]: accepted 6-aminohexanoate as substrate
B2: SEQ ID NO 9: Pseudomonas syringae ω-transaminase, Genbank Accession No. AAY39893.1, N-terminal HIS tagged (protein, listed as Pseudomonas syringae)
chain: MSANNPQTLEWQALSSEHHLAPFSDYKQLKEKGPRIITRAEGVYLWDSEGNKILDGMSGLWCVAIGYGREELADAASKQMRELPYYNLFFQTAHPPVLELAKAISDIAPEGMNHVFFTGSGSEGNDTMLRMVRHYWALKGQPNKKTIISRVNGYHGSTVAGASLGGMTYMHEQGDLPIPGVVHIPQPYWFGEGGDMTPDEFGIWAAEQLEKKILELGVENVGAFIAEPIQGAGGVIVPPDSYWPKIKEILSRYDILFAADEVICGFGRTSEWFGSDFYGLRPDMMTIAKGLTSGYVPMGGLIVRDEIVAVLNEGGDFNHGFTYSGHPVAAAVALENIRILREEKIVERVRSETAPYLQKRLRELSDHPLVGEVRGVGLLGAIELVKDKTTRERYTDKGAGMICRTFCFDNGLIMRAVGDTMIIAPPLVISFAQIDELVEKARTCLDLTLAVLQG
modifications: N-terminal His tag
ω-transaminase activity for converting adipate semialdehyde to 6-aminohexanoate (formation of pyruvate from L-alanine) [2]: accepted adipate semialdehyde as substrate

B3: SEQ ID NO 6: Segniliparus rotundus carboxylate reductase, Genbank Accession No. ADG98140.1, N-terminal HIS tagged (protein, listed as Segniliparus rotundus)
chain: MTQSHTQGPQASAAHSRLARRAAELLATDPQAAATLPDPEVVRQATRPGLRLAERVDAILSGYADRPALGQRSFQTVKDPITGRSSVELLPTFDTITYRELRERATAIASDLAHHPQAPAKPGDFLASIGFISVDYVAIDIAGVFAGLTAVPLQTGATLATLTAITAETAPTLFAASIEHLPTAVDAVLATPSVRRLLVFDYRAGSDEDREAVEAAKRKIADAGSSVLVDVLDEVIARGKSAPKAPLPPATDAGDDSLSLLIYTSGSTGTPKGAMYPERNVAHFWGGVWAAAFDEDAAPPVPAINITFLPLSHVASRLSLMPTLARGGLMHFVAKSDLSTLFEDLKLARPTNLFLVPRVVEMLYQHYQSELDRRGVQDGTREAEAVKDDLRTGLLGGRILTAGFGSAPLSAELAGFIESLLQIHLVDGYGSTEAGPVWRDGYLVKPPVTDYKLIDVPELGYFSTDSPHPRGELAIKTQTILPGYYKRPETTAEVFDEDGFYLTGDVVAQIGPEQFAYVDRRKNVLKLSQGEFVTLAKLEAAYSSSPLVRQLFVYGSSERSYLLAVIVPTPDALKKFGVGEAAKAALGESLQKIARDEGLQSYEVPRDFIIETDPFTVENGLLSDARKSLRPKLKEHYGERLEAMYKELADGQANELRDIRRGVQQRPTLETVRRAAAAMLGASAAEIKPDAHFTDLGGDSLSALTFSNFLHDLFEVDVPVGVIVSAANTLGSVAEHIDAQLAGGRARPTFATVHGKGSTTIKASDLTLDKFIDEQTLEAAKHLPKPADPPRTVLLTGANGWLGRFLALEWLERLAPAGGKLITIVRGKDAAQAKARLDAAYESGDPKLAGHYQDLAATTLEVLAGDFSEPRLGLDEATWNRLADEVDFISHPGALVNHVLPYNQLFGPNVAGVAEIIKLAITTRIKPVTYLSTVAVAAGVEPSALDEDGDIRTVSAERSVDEGYANGYGNSKWGGEVLLREAHDRTGLPVRVFRSDMILAHQKYTGQVNATDQFTRLVQSLLATGLAPKSFYELDAQGNRQRAHYDGIPVDFTAESITTLGGDGLEGYRSYNVFNPHRDGVGLDEFVDWLIEAGHPITRIDDYDQWLSRFETSLRGLPESKRQASVLPLLHAFARPGPAVDGSPFRNTVFRTDVQKAKIGAEHDIPHLGKALVLKYADDIKQLGLL
modifications: N-terminal His tag
carboxylate reductase activity for converting adipate semialdehyde to hexanedial (consumption of NADPH, absorbance at 340 nm) [3]: accepted adipate semialdehyde as substrate

ω-transaminase activity for converting 6-aminohexanoate to adipate semialdehyde (formation of L-alanine from pyruvate) [1]: accepted 6-aminohexanoate as substrate
B4: SEQ ID NO 7: Chromobacterium violaceum ω-transaminase, Genbank Accession No. AAQ59697.1, N-terminal HIS tagged (protein, listed as Chromobacterium violaceum)
chain: MQKQRTTSQWRELDAAHHLHPFTDTASLNQAGARVMTRGEGVYLWDSEGNKIIDGMAGLWCVNVGYGRKDFAEAARRQMEELPFYNTFFKTTHPAVVELSSLLAEVTPAGFDRVFYTNSGSESVDTMIRMVRRYWDVQGKPEKKTLIGRWNGYHGSTIGGASLGGMKYMHEQGDLPIPGMAHIEQPWWYKHGKDMTPDEFGVVAARWLEEKILEIGADKVAAFVGEPIQGAGGVIVPPATYWPEIERICRKYDVLLVADEVICGFGRTGEWFGHQHFGFQPDLFTAAKGLSSGYLPIGAVFVGKRVAEGLIAGGDFNHGFTYSGHPVCAAVAHANVAALRDEGIVQRVKDDIGPYMQKRWRETFSRFEHVDDVRGVGMVQAFTLVKNKAKRELFPDFGEIGTLCRDIFFRNNLIMRACGDHIVSAPPLVMTRAEVDEMLAVAERCLEEFEQTLKARGLA
modifications: N-terminal His tag
ω-transaminase activity for converting adipate semialdehyde to 6-aminohexanoate (formation of pyruvate from L-alanine) [2]: accepted adipate semialdehyde as substrate

B5: SEQ ID NO 8: Pseudomonas aeruginosa ω-transaminase, Genbank Accession No. AAG08191.1, N-terminal HIS tagged (protein, listed as Pseudomonas aeruginosa)
chain: MNARLHATSPLGDADLVRADQAHYMHGYHVFDDHRVNGSLNIAAGDGAYIYDTAGNRYLDAVGGMWCTNIGLGREEMARTVAEQTRLLAYSNPFCDMANPRAIELCRKLAELAPGDLDHVFLTTGGSTAVDTAIRLMHYYQNCRGKRAKKHVITRINAYHGSTFLGMSLGGKSADRPAEFDFLDERIHHLACPYYYRAPEGLGEAEFLDGLVDEFERKILELGADRVGAFISEPVFGSGGVIVPPAGYHRRMWELCQRYDVLYISDEVVTSFGRLGHFFASQAVFGVQPDIILTAKGLTSGYQPLGACIFSRRIWEVIAEPDKGRCFSHGFTYSGHPVACAAALKNIEIIEREGLLAHADEVGRYFEERLQSLRDLPIVGDVRGMRFMACVEFVADKASKALFPESLNIGEWVHLRAQKRGLLVRPIVHLNVMSPPLILTREQVDTVVRVLRESIEETVEDLVRAGHR
modifications: N-terminal His tag
ω-transaminase activity for converting adipate semialdehyde to 6-aminohexanoate (formation of pyruvate from L-alanine) [2]: accepted adipate semialdehyde as substrate

Source: patent US20160152957A1, “Methods of Producing 6-Carbon Monomers From 8-Carbon Compounds” (INVISTA North America S.á.r.l., priority 2014, published 2016)
